Source: the supplement of paper PMC10126150
± gives the standard deviation of the averaged measurements.

Test system: ATP
Assay: switch fluorescence ratio, 500 uM ATP over buffer (Cy3 cluster intensity, sum of 5 cycles each) (fold (ratio)); higher = stronger signal-on switching upon ATP binding; sequences stand for … in TCGTCGGCAGCGTCAGATGTGTATAAGAGACAGTTTTTTTTTTTTTTTTTTTTTTTTT…TC
Details: aptamer strand: ATP DNA aptamer (quencher-CACCTGGGGGAGTATTGCGGAGGAAGG + anchor), 100 nM annealed; ATP concentration: 500 uM
Method in brief: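 Cy3-labelled switching-strand clusters on a modified Illumina MiSeq flow-cell were annealed to 100 nM quencher-labelled ATP aptamer and imaged first in selection buffer, then after 15 min with 500 uM ATP at 22 °C. NaOH stripping and re-annealing separated each of five buffer/ATP cycles, and clusters outside 100-1000 RFU were excluded. The fluorescence ratio sums target-cycle Cy3 intensity over buffer-cycle Cy3 intensity per cluster and averages it per switch-domain sequence.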
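Also: ATP exposure 15 min at 22 °C before imaging.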

Sequence | switch fluorescence ratio
GCGGTAACGT | 0.9765 ± 0.0069
CATGGAGATT | 0.9866 ± 0.0092
CGTCAAACAT | 1.081 ± 0.0084
ATTTGTGGTG | 1.01 ± 0.023
TTCCTTGGTC | 1.18 ± 0.24
TTGGCCACGC | 1.018 ± 0.0056
GTCTGGCTAC | 1.22 ± 0.061
TGAGGTTAGA | 1.03 ± 0.029
GAGGAAAGCG | 1.04 ± 0.089
CTTATAGCTT | 0.987 ± 0.033
TGTGGTTTTA | 1 ± 0.033
GTAATAGTGT | 0.981 ± 0.018
CTATTACGTC | 0.984 ± 0.045
TACTGGTGAC | 1.06 ± 0.012
GACTTAGTGC | 1.05 ± 0.012
CTAGTGACTA | 0.987 ± 0.032
TTCGGTATGT | 1.01 ± 0.027
AGGCGGGCAG | 1.039 ± 0.004
GAACGTTATT | 1.2 ± 0.23
CAAAAATTGG | 1 ± 0.041
GCAATGTAGG | 1.04 ± 0.03
GGACTGGATG | 1 ± 0.031
GACAGGGTTA | 1.001 ± 0.0086
ACTATTCGT | 0.99 ± 0.026
GATATCCGTA | 0.962 ± 0.015

Sequence | switch fluorescence ratio
TTAAAATATA | 0.984 ± 0.059
AACAGTAGCA | 1.03 ± 0.019
ATGATCGATG | 0.979 ± 0.026
GCGCGCGGAA | 1.016 ± 0.0016
TTAAGGTCGT | 0.995 ± 0.034
CCACGCCAGG | 2.79 ± 0.084
AATAGGCGCG | 1.02 ± 0.014
GTAGTTCTGC | 1 ± 0.018
TAAATATCGT | 1 ± 0.013
GAGGTACGCT | 1.01 ± 0.021
GGGCGGGGTA | 1.01 ± 0.027
CAGTGCACTC | 0.9918 ± 0.0014
GATACTGATC | 1.13 ± 0.042
TTAGGAAGGT | 1 ± 0.021
AGGGGTATT | 1 ± 0.014
CGTCATCGCA | 1.2 ± 0.022
CCATTGCACG | 1.16 ± 0.12
AAAGTCTCGT | 0.972 ± 0.018
TTAAGATGTA | 1.01 ± 0.039
GAGGTAAGGG | 0.998 ± 0.029
CGTTCTAATT | 1.01 ± 0.024
TTAAGCTGAA | 0.961 ± 0.044
TCTGGGGGTA | 0.982 ± 0.022
AATAGGCACC | 0.993 ± 0.018
GTATTTAGGA | 0.992 ± 0.011

Sequence | switch fluorescence ratio
TCAAATGGTA | 1.006 ± 0.0037
ACAGGGATCA | 0.981 ± 0.052
GACGATATGT | 1.07 ± 0.041
CAGACGGGGG | 1.01 ± 0.026
CGGTCGGGGA | 1 ± 0.043
GAATCAGGG | 0.972 ± 0.034
AGGGATAAAA | 1.02 ± 0.055
TTAAAGCGGC | 0.993 ± 0.083
TTAGGACGGC | 0.876 ± 0.02
TAGACAGTTT | 0.993 ± 0.023
AGGCAGGACT | 1.02 ± 0.044
AAACTGGAAA | 0.99 ± 0.016
GCGATCCCCT | 1.77 ± 0.72
CTGGTTACGG | 1.01 ± 0.015
CAGGAGGGGT | 1.03 ± 0.025
CTCTATATTG | 1.008 ± 0.0073
TAAGTGGG | 0.9621 ± 0.0055
AATTTACTCT | 1.07 ± 0.018
ATATTCTTTT | 1.03 ± 0.091
ACGTTGCTGA | 1.02 ± 0.028
TTATAGAGG | 1.02 ± 0.0041
CCGGGCGTA | 1.15 ± 0.083
CGGCTCAACT | 1.01 ± 0.022
GAGCTAGTCA | 0.975 ± 0.037
CTTGCTTGAG | 1.003 ± 0.0007

Sequence | switch fluorescence ratio
TCTGGGGGGC | 0.996 ± 0.075
TTAGGAAATT | 1.04 ± 0.032
CGTGTTCGGA | 0.977 ± 0.016
CAGTGTGGTG | 1 ± 0.049
AGGTCGCCTG | 1.031 ± 0.0069
AGTGATATGA | 0.9882 ± 0.0021
CATTCTCAAT | 1.17 ± 0.056
TGGTAAAGCA | 1.06 ± 0.11
GGGTGCGCTG | 1.03 ± 0.014
AAGGGAGATT | 0.968 ± 0.011
ATAACGTTTT | 1.02 ± 0.019
CCTTGGCTTT | 1.53 ± 0.11
CCCTTTAGGG | 1.025 ± 0.0025
GTTGTGTGTA | 0.9921 ± 0.0082
GACGGTTCGT | 1.01 ± 0.022
TATAATATAT | 1 ± 0.029
AAGTGGATTG | 1.003 ± 0.01
AGGATGAGGT | 0.978 ± 0.057
AAGTGGCATG | 0.974 ± 0.022
TAAAGAGTAG | 1 ± 0.042
ACTGGGATGG | 1.031 ± 0.0089
CGTGAGGGTA | 1.02 ± 0.028
TTTTGAATGG | 1.02 ± 0.04
AGGCGGGCGG | 0.959 ± 0.019
GACTACCCCT | 1.234 ± 0.011
